This is an account of results in patent publication US5455329A, “DNA sequences coding for PTH variants, PTH variants, expression vector, bacterial host, use and therapeutic composition” (Gesellschaft fur Biotechnologische Forschung mbH (GBF), priority 1989, dated 1995).

Data set [1] has as its system adenylate cyclase in isolated membranes of porcine adrenal cortices. Briefly: Stimulation of adenylate cyclase in isolated membranes, in vitro test according to Mohr and Hesch. It is filed as biochemical. The settings on record: for Adenylate cyclase (%) relative activity: relative to recombinant hPTH (=100), stimulation beyond the base level; for Effect on adenylate cyclase stimulation (in words, group classification): qualitative, versus wild type PTH. The procedure: The PTH variants so obtained were tested for their ability to stimulate adenylate cyclase in isolated membranes of porcine adrenal cortices in an in vitro test according to Mohr and Hesch (Biochem. J., 188 (1980) 649-656) .

For data set [2], the system named is embryonal chicken chondrocytes. Briefly: Increase of DNA synthesis of embryonal chicken chondrocytes. The data set is classed as cell-based. Particulars: for DNA synthesis (%) relative activity: relative to recombinant hPTH (=100), stimulation beyond the base level, chondrocytes; for Effect on stimulation of DNA synthesis (in words, group classification): qualitative, versus wild type PTH. The procedure:
They were also tested for their ability, according to DE-A-37 25 319.0 and DE-A-37 25 320.4, to increase the DNA synthesis of embryonal chicken chondrocytes.

As for “rec-hPTH: recombinant human parathyroid hormone wild type, lengthened N-terminally by one proline residue; reference = 100 % [reference compound]”, the “Adenylate cyclase (%) relative activity” value in data set [1] worked out at 100%. Also, in data set [2], the “DNA synthesis (%) relative activity” value is reported as 100%.

B1: Q29N: hPTH variant Gln(29) -> Asn(29), lengthened N-terminally by one proline (protein, UniProt P01270 32-115, looked up, variant Q29N)
Parathyroid hormone: SVSEIQLMHNLGKHLNSMERVEWLRKKLNDVHNFVALGAPLAPRDAGSQRPRKKEDNVLVESHEKSLGEADKADVNVLTKAKSQ
modifications: Parathyroid hormone N-terminal proline extension
notes: hPTH variant Gln(29) -> Asn(29), lengthened N-terminally by one proline
On to B1, for which, in data set [1], the “Effect on adenylate cyclase stimulation (in words, group classification)” value (“Effect on adenylate cyclase stimulation” below) is listed as “maintain the stimulation” and the “Adenylate cyclase (%) relative activity” value is reported as 99%. In data set [2], the “Effect on stimulation of DNA synthesis (in words, group classification)” value (shortened to “Effect on stimulation of DNA synthesis”) is listed as “maintain the stimulation” and the “DNA synthesis (%) relative activity” value turned out to be 95%.

B2: K27R: hPTH variant Lys(27) -> Arg(27), lengthened N-terminally by one proline (protein, UniProt P01270 32-115, looked up, variant K27R)
Parathyroid hormone: SVSEIQLMHNLGKHLNSMERVEWLRKRLQDVHNFVALGAPLAPRDAGSQRPRKKEDNVLVESHEKSLGEADKADVNVLTKAKSQ
modifications: Parathyroid hormone N-terminal proline extension
notes: hPTH variant Lys(27) -> Arg(27), lengthened N-terminally by one proline
Take B2: in data set [1], the “Effect on adenylate cyclase stimulation” value is “maintain the stimulation” and the “Adenylate cyclase (%) relative activity” value is listed as 90%. For the same molecule, in data set [2], the “Effect on stimulation of DNA synthesis” value is “maintain the stimulation” and the “DNA synthesis (%) relative activity” value was determined as 81%.

B3: H32R: hPTH variant His(32) -> Arg(32), lengthened N-terminally by one proline (protein, UniProt P01270 32-115, looked up, variant H32R)
Parathyroid hormone: SVSEIQLMHNLGKHLNSMERVEWLRKKLQDVRNFVALGAPLAPRDAGSQRPRKKEDNVLVESHEKSLGEADKADVNVLTKAKSQ
modifications: Parathyroid hormone N-terminal proline extension
notes: hPTH variant His(32) -> Arg(32), lengthened N-terminally by one proline
For the molecule B3, in data set [1], the “Effect on adenylate cyclase stimulation” value is recorded as “substantial retention of the effect on adenylate cyclase” and the “Adenylate cyclase (%) relative activity” value worked out at 87%. Besides, in data set [2], the “Effect on stimulation of DNA synthesis” value is “significant reduction in the stimulation of DNA synthesis” and the “DNA synthesis (%) relative activity” value worked out at 36%.

B4: R20E: hPTH variant Arg(20) -> Glu(20), lengthened N-terminally by one proline (protein, UniProt P01270 32-115, looked up, variant R20E)
Parathyroid hormone: SVSEIQLMHNLGKHLNSMEEVEWLRKKLQDVHNFVALGAPLAPRDAGSQRPRKKEDNVLVESHEKSLGEADKADVNVLTKAKSQ
modifications: Parathyroid hormone N-terminal proline extension
notes: hPTH variant Arg(20) -> Glu(20), lengthened N-terminally by one proline
Take B4: in data set [1], the “Effect on adenylate cyclase stimulation” value was “significant reduction in adenylate cyclase stimulation” and the “Adenylate cyclase (%) relative activity” value worked out at 0%. Also, in data set [2], the “Effect on stimulation of DNA synthesis” value was “unaffected DNA synthesis” and the “DNA synthesis (%) relative activity” value came out at 0%.

B5: E4R: hPTH variant Glu(4) -> Arg(4), lengthened N-terminally by one proline (protein, UniProt P01270 32-115, looked up, variant E4R)
Parathyroid hormone: SVSRIQLMHNLGKHLNSMERVEWLRKKLQDVHNFVALGAPLAPRDAGSQRPRKKEDNVLVESHEKSLGEADKADVNVLTKAKSQ
modifications: Parathyroid hormone N-terminal proline extension
notes: hPTH variant Glu(4) -> Arg(4), lengthened N-terminally by one proline
For B5, in data set [1], the “Effect on adenylate cyclase stimulation” value is “significant reduction in adenylate cyclase stimulation” and the “Adenylate cyclase (%) relative activity” value is reported as 47%. Moreover, in data set [2], the “Effect on stimulation of DNA synthesis” value was “increase in DNA synthesis” and the “DNA synthesis (%) relative activity” value was found to be 88%.

B6: E4R, R20E: hPTH variant Glu(4) Arg(20) -> Arg(4), Glu(20), lengthened N-terminally by one proline (protein, UniProt P01270 32-115, looked up, variant E4R R20E)
Parathyroid hormone: SVSRIQLMHNLGKHLNSMEEVEWLRKKLQDVHNFVALGAPLAPRDAGSQRPRKKEDNVLVESHEKSLGEADKADVNVLTKAKSQ
modifications: Parathyroid hormone N-terminal proline extension
notes: hPTH variant Glu(4) Arg(20) -> Arg(4), Glu(20), lengthened N-terminally by one proline
Take B6: in data set [1], the “Effect on adenylate cyclase stimulation” value is reported as “significant reduction in adenylate cyclase stimulation” and the “Adenylate cyclase (%) relative activity” value was 20%. In data set [2], the “Effect on stimulation of DNA synthesis” value is “increase in DNA synthesis” and the “DNA synthesis (%) relative activity” value is listed as 58%.

B7: K13P: hPTH variant Lys(13) -> Pro(13), lengthened N-terminally by one proline (protein, UniProt P01270 32-115, looked up, variant K13P)
Parathyroid hormone: SVSEIQLMHNLGPHLNSMERVEWLRKKLQDVHNFVALGAPLAPRDAGSQRPRKKEDNVLVESHEKSLGEADKADVNVLTKAKSQ
modifications: Parathyroid hormone N-terminal proline extension
notes: hPTH variant Lys(13) -> Pro(13), lengthened N-terminally by one proline
Take B7: in data set [1], the “Effect on adenylate cyclase stimulation” value is listed as “significant reduction in adenylate cyclase stimulation” and the “Adenylate cyclase (%) relative activity” value stood at 6%. Also, in data set [2], the “Effect on stimulation of DNA synthesis” value is recorded as “increase in DNA synthesis” and the “DNA synthesis (%) relative activity” value is recorded as 88%.

B8: K27L: hPTH variant Lys(27) -> Leu(27), lengthened N-terminally by one proline (protein, UniProt P01270 32-115, looked up, variant K27L)
Parathyroid hormone: SVSEIQLMHNLGKHLNSMERVEWLRKLLQDVHNFVALGAPLAPRDAGSQRPRKKEDNVLVESHEKSLGEADKADVNVLTKAKSQ
modifications: Parathyroid hormone N-terminal proline extension
notes: hPTH variant Lys(27) -> Leu(27), lengthened N-terminally by one proline
Regarding B8, in data set [1], the “Effect on adenylate cyclase stimulation” value is “significant reduction in adenylate cyclase stimulation” and the “Adenylate cyclase (%) relative activity” value turned out to be 35%. In data set [2], the “Effect on stimulation of DNA synthesis” value was “increase in DNA synthesis” and the “DNA synthesis (%) relative activity” value turned out to be 70%.

B9: H32L: hPTH variant His(32) -> Leu(32), lengthened N-terminally by one proline (protein, UniProt P01270 32-115, looked up, variant H32L)
Parathyroid hormone: SVSEIQLMHNLGKHLNSMERVEWLRKKLQDVLNFVALGAPLAPRDAGSQRPRKKEDNVLVESHEKSLGEADKADVNVLTKAKSQ
modifications: Parathyroid hormone N-terminal proline extension
notes: hPTH variant His(32) -> Leu(32), lengthened N-terminally by one proline
Turning to B9, in data set [1], the “Effect on adenylate cyclase stimulation” value is “substantial retention of the effect on adenylate cyclase” and the “Adenylate cyclase (%) relative activity” value is 93%. For the same molecule, in data set [2], the “Effect on stimulation of DNA synthesis” value is “significant reduction in the stimulation of DNA synthesis” and the “DNA synthesis (%) relative activity” value is 11%.

B10: H32K: hPTH variant His(32) -> Lys(32), lengthened N-terminally by one proline (protein, UniProt P01270 32-115, looked up, variant H32K)
Parathyroid hormone: SVSEIQLMHNLGKHLNSMERVEWLRKKLQDVKNFVALGAPLAPRDAGSQRPRKKEDNVLVESHEKSLGEADKADVNVLTKAKSQ
modifications: Parathyroid hormone N-terminal proline extension
notes: hPTH variant His(32) -> Lys(32), lengthened N-terminally by one proline
B10: in data set [1], the “Effect on adenylate cyclase stimulation” value is “substantial retention of the effect on adenylate cyclase” and the “Adenylate cyclase (%) relative activity” value is reported as 85%. In data set [2], the “Effect on stimulation of DNA synthesis” value is on record as “significant reduction in the stimulation of DNA synthesis” and the “DNA synthesis (%) relative activity” value came to 22%.

B11: Q29A: hPTH variant Gln(29) -> Ala(29), lengthened N-terminally by one proline (protein, UniProt P01270 32-115, looked up, variant Q29A)
Parathyroid hormone: SVSEIQLMHNLGKHLNSMERVEWLRKKLADVHNFVALGAPLAPRDAGSQRPRKKEDNVLVESHEKSLGEADKADVNVLTKAKSQ
modifications: Parathyroid hormone N-terminal proline extension
notes: hPTH variant Gln(29) -> Ala(29), lengthened N-terminally by one proline
B11: in data set [1], the “Effect on adenylate cyclase stimulation” value is “substantial retention of the effect on adenylate cyclase” and the “Adenylate cyclase (%) relative activity” value was found to be 104%. Moreover, in data set [2], the “Effect on stimulation of DNA synthesis” value is listed as “significant reduction in the stimulation of DNA synthesis” and the “DNA synthesis (%) relative activity” value amounted to 8%.

B12: L11K: hPTH variant Leu(11) -> Lys(11), lengthened N-terminally by one proline (protein, UniProt P01270 32-115, looked up, variant L11K)
Parathyroid hormone: SVSEIQLMHNKGKHLNSMERVEWLRKKLQDVHNFVALGAPLAPRDAGSQRPRKKEDNVLVESHEKSLGEADKADVNVLTKAKSQ
modifications: Parathyroid hormone N-terminal proline extension
notes: hPTH variant Leu(11) -> Lys(11), lengthened N-terminally by one proline
As to B12, in data set [1], the “Effect on adenylate cyclase stimulation” value was “maintain the stimulation of adenylate cyclase” and the “Adenylate cyclase (%) relative activity” value is 89%. In data set [2], the “Effect on stimulation of DNA synthesis” value was “reduce that of DNA synthesis” and the “DNA synthesis (%) relative activity” value worked out at 21%.
